Measurements: the supplement of paper PMC9233669
This sample holds only a part of the variants without activity.

Legend:
biotinyl-Trp-oxazolone = assay: self-aminoacylation, catalytic enhancement (BWO) (fold over background); higher = more active; k-Seq, kA / k0A0; sequences stand for … in GGGAAUGGAUCCACAUCUACGAAUUC…UUCACUGCAGACUUGACGAAGCUG
How it was run: (§1)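 Catalytic enhancement equals the median kA over the uncatalyzed rate, the latter read from the low-activity peak of a bimodal Gaussian fit. Values of kA came from fitting each sequence's fraction reacted to a pseudo-first-order model, with 1000 bootstraps. Reacted RNA was captured with streptavidin and quantified by triplicate qPCR and Illumina sequencing after 90 minutes at room temperature with 2–1250 μM biotinyl-aminoacyl-oxazolone and 0.43 μM mutagenized RNA pools bearing a 21-nt variable region.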

biotinyl-Ile-oxazolone = assay: self-aminoacylation, catalytic enhancement (BIO) (fold over background); higher = more active; k-Seq, kA / k0A0; sequences stand for … in GGGAAUGGAUCCACAUCUACGAAUUC…UUCACUGCAGACUUGACGAAGCUG
How it was run: as §1

biotinyl-Met-oxazolone = assay: self-aminoacylation, catalytic enhancement (BMO) (fold over background); higher = more active; k-Seq, kA / k0A0; sequences stand for … in GGGAAUGGAUCCACAUCUACGAAUUC…UUCACUGCAGACUUGACGAAGCUG
How it was run: as §1

biotinyl-Leu-oxazolone = assay: self-aminoacylation, catalytic enhancement (BLO) (fold over background); higher = more active; k-Seq, kA / k0A0; sequences stand for … in GGGAAUGGAUCCACAUCUACGAAUUC…UUCACUGCAGACUUGACGAAGCUG
How it was run: as §1

biotinyl-Phe-oxazolone = assay: self-aminoacylation, catalytic enhancement (BFO) (fold over background); higher = more active; k-Seq, kA / k0A0; sequences stand for … in GGGAAUGGAUCCACAUCUACGAAUUC…UUCACUGCAGACUUGACGAAGCUG
How it was run: as §1

biotinyl-Val-oxazolone = assay: self-aminoacylation, catalytic enhancement (BVO) (fold over background); higher = more active; k-Seq, kA / k0A0; sequences stand for … in GGGAAUGGAUCCACAUCUACGAAUUC…UUCACUGCAGACUUGACGAAGCUG
How it was run: as §1

| Sequence | self-aminoacylation (biotinyl-Trp-oxazolone) | self-aminoacylation (biotinyl-Ile-oxazolone) | self-aminoacylation (biotinyl-Met-oxazolone) | self-aminoacylation (biotinyl-Leu-oxazolone) | self-aminoacylation (biotinyl-Phe-oxazolone) | self-aminoacylation (biotinyl-Val-oxazolone) |
| --- | --- | --- | --- | --- | --- | --- |
| AUUACCCUGGUCAUCGAGUAG [Fam2.1 aminoacylation ribozyme variant] | 4.18 | 2.15 | 4.51 | 4.67 | 13.9 | 2.64 |
| AUUACCCUGGUCAUCGAUUGU [Fam2.1 aminoacylation ribozyme variant] | 0.386 | 0.753 | 0.73 | 0.736 | 0.73 | 0.785 |
| AUUACCCUGGUCAUCGCAUGA [Fam2.1 aminoacylation ribozyme variant] | 3.77 | 2.01 | 3.2 | 3.5 | 13.8 | 1.75 |
| AUUACCCUGGUCAUCGCGUGG [Fam2.1 aminoacylation ribozyme variant] | 5.28 | 2.8 | 3.88 | 6.77 | 35.6 | 3.14 |
| AUUACCCUGGUCAUCGGGAGA [Fam2.1 aminoacylation ribozyme variant] | 5.01 | 1.71 | 2.97 | 4.4 | 2.87 | 2.41 |
| AUUACCCUGGUCAUCGGGUCA [Fam2.1 aminoacylation ribozyme variant] | 9.71 | 3.61 | 5.33 | 6.66 | 22.5 | 4.01 |
| AUUACCCUGGUCAUCGUGAGA [Fam2.1 aminoacylation ribozyme variant] | 0.867 | 0.703 | 0.897 | 0.777 | 0.858 | 0.789 |
| AUUACCCUGGUCAUCUAGUAA [Fam2.1 aminoacylation ribozyme variant] | 0.903 | 1.1 | 1.06 | 1.15 | 1.32 | 1.08 |
| AUUACCCUGGUCAUCUGGUGA [Fam2.1 aminoacylation ribozyme variant] | 4.53 | 3.08 | 5 | 5.37 | 31.1 | 2.72 |
| AUUACCCUGGUCAUGGAGUGA [Fam2.1 aminoacylation ribozyme variant] | 5.8 | 3.07 | 4.69 | 4.95 | 19.7 | 3.02 |
| AUUACCCUGGUCAUGGAGUGC [Fam2.1 aminoacylation ribozyme variant] | 0.556 | 1.05 | 0.858 | 1.24 | 0.89 | 1.17 |
| AUUACCCUGGUCAUGGAGUGU [Fam2.1 aminoacylation ribozyme variant] | 2.57 | 1.72 | 2.46 | 2.73 | 3.83 | 1.98 |
| AUUACCCUGGUCAUGGAGUUA [Fam2.1 aminoacylation ribozyme variant] | 0.695 | 1.04 | 1.23 | 0.899 | 0.664 | 1.13 |
| AUUACCCUGGUCAUGGGGUGA [Fam2.1 aminoacylation ribozyme variant] | 9.45 | 4.02 | 8.63 | 10.1 | 66.9 | 4.17 |
| AUUACCCUGGUCAUGUAGUGA [Fam2.1 aminoacylation ribozyme variant] | 2.4 | 1.77 | 1.97 | 2 | 4.73 | 1.81 |
| AUUACCCUGGUCAUUGAGUGA [Fam2.1 aminoacylation ribozyme variant] | 10.8 | 4.27 | 9.01 | 8.58 | 44.1 | 4.49 |
| AUUACCCUGGUCAUUGAGUGC [Fam2.1 aminoacylation ribozyme variant] | 0.798 | 0.962 | 0.995 | 1.15 | 1.08 | 0.993 |
| AUUACCCUGGUCAUUGGGUGA [Fam2.1 aminoacylation ribozyme variant] | 12.9 | 5.58 | 12.1 | 13.1 | 93.4 | 5.6 |
| AUUACCCUGGUCCUAGAGUGA [Fam2.1 aminoacylation ribozyme variant] | 10.8 | 4.03 | 9.27 | 9.4 | 45.8 | 4.85 |
| AUUACCCUGGUCCUCGAGAGA [Fam2.1 aminoacylation ribozyme variant] | 0.889 | 0.884 | 0.757 | 1.32 | 0.376 | 1.28 |
| AUUACCCUGGUCCUCGAGCGA [Fam2.1 aminoacylation ribozyme variant] | 1.68 | 1.46 | 1.97 | 1.25 | 3.24 | 1.77 |
| AUUACCCUGGUCCUCGAGUAA [Fam2.1 aminoacylation ribozyme variant] | 1.64 | 1.35 | 0.966 | 1.33 | 0.542 | 1.36 |
| AUUACCCUGGUCCUCGAGUGA [Fam2.1 aminoacylation ribozyme variant] | 3.77 | 2.07 | 3.43 | 3.55 | 6.54 | 2.24 |
| AUUACCCUGGUCCUCGAGUGU [Fam2.1 aminoacylation ribozyme variant] | 3.02 | 1.59 | 2.78 | 3.22 | 2.62 | 1.73 |
| AUUACCCUGGUCGUCGGGUGA [Fam2.1 aminoacylation ribozyme variant] | 5.14 | 2.86 | 3.87 | 4.72 | 26.3 | 2.98 |
| AUUACCCUGGUCUUCGACUGA [Fam2.1 aminoacylation ribozyme variant] | 0.675 | 0.992 | 0.832 | 0.717 | 0.68 | 0.737 |

| Sequence | self-aminoacylation (biotinyl-Trp-oxazolone) | self-aminoacylation (biotinyl-Ile-oxazolone) | self-aminoacylation (biotinyl-Met-oxazolone) | self-aminoacylation (biotinyl-Leu-oxazolone) | self-aminoacylation (biotinyl-Phe-oxazolone) | self-aminoacylation (biotinyl-Val-oxazolone) |
| --- | --- | --- | --- | --- | --- | --- |
| AUUACCCUGGUGAACGAGUGA [Fam2.1 aminoacylation ribozyme variant] | 2.82 | 1.42 | 2.47 | 2.25 | 2.79 | 1.65 |
| AUUACCCUGGUGAUCAAGUGA [Fam2.1 aminoacylation ribozyme variant] | 4.2 | 1.81 | 3.19 | 3.25 | 8.79 | 1.92 |
| AUUACCCUGGUGAUCGAAUGA [Fam2.1 aminoacylation ribozyme variant] | 0.949 | 0.957 | 0.846 | 1.02 | 0.432 | 1.09 |
| AUUACCCUGGUGAUCGAGUGA [Fam2.1 aminoacylation ribozyme variant] | 5.95 | 2.56 | 5.19 | 5.14 | 25.1 | 2.69 |
| AUUACCCUGGUGAUCGAGUGG [Fam2.1 aminoacylation ribozyme variant] | 1.82 | 1.11 | 1.79 | 1.63 | 3.23 | 1.26 |
| AUUACCCUGGUUAUCGAGUUA [Fam2.1 aminoacylation ribozyme variant] | 0.319 | 0.945 | 1.15 | 1.01 | 0.868 | 0.885 |
| AUUACCCUGGUUAUCGUGUGA [Fam2.1 aminoacylation ribozyme variant] | 2.76 | 1.27 | 2.4 | 2.3 | 15 | 1.49 |
| AUUACCCUGGUUAUUGAGUGA [Fam2.1 aminoacylation ribozyme variant] | 17.8 | 6.24 | 14.4 | 15.1 | 102 | 6.4 |
| AUUACCCUGUUCAUAGAGUGA [Fam2.1 aminoacylation ribozyme variant] | 18 | 6.48 | 15.6 | 14.6 | 110 | 6.44 |
| AUUACCCUGUUGAUCGAGUGA [Fam2.1 aminoacylation ribozyme variant] | 16.8 | 5.62 | 12.5 | 13 | 78.3 | 5.71 |
| AUUACCCUUGGCAUCGAGUGA [Fam2.1 aminoacylation ribozyme variant] | 8.88 | 2.75 | 6 | 6.72 | 31.7 | 3.39 |
| AUUACCCUUGUCAUCGAGUAA [Fam2.1 aminoacylation ribozyme variant] | 1.53 | 1.19 | 1.36 | 1.22 | 0.935 | 1.13 |
| AUUACCCUUGUCAUCGAGUCA [Fam2.1 aminoacylation ribozyme variant] | 0.591 | 0.895 | 0.756 | 0.708 | 0.6 | 0.841 |
| AUUACCCUUGUCAUCGAGUGG [Fam2.1 aminoacylation ribozyme variant] | 1 | 1.25 | 2.03 | 1.85 | 1.98 | 1.54 |
| AUUACCCUUGUCAUCGAGUGU [Fam2.1 aminoacylation ribozyme variant] | 3.65 | 1.71 | 2.89 | 3.08 | 8.43 | 2.03 |
| AUUACCGGGGUCAUCGAGUGA [Fam2.1 aminoacylation ribozyme variant] | 6.27 | 3.48 | 5.81 | 6.14 | 33.8 | 3.67 |
| AUUACCGUGGGCAUCGAGUGA [Fam2.1 aminoacylation ribozyme variant] | 5.68 | 3.09 | 5.35 | 6.2 | 34.7 | 3.22 |
| AUUACCGUGGUCAUCGACUGA [Fam2.1 aminoacylation ribozyme variant] | 0.507 | 1.06 | 0.911 | 0.742 | 0.518 | 1.11 |
| AUUACCGUGGUCAUCGAGUGA [Fam2.1 aminoacylation ribozyme variant] | 7.62 | 3.39 | 6.27 | 6.4 | 35.1 | 3.68 |
| AUUACCGUGGUCAUCGAGUGC [Fam2.1 aminoacylation ribozyme variant] | 1 | 0.895 | 0.762 | 1.08 | 2.57 | 1.05 |
| AUUACCGUGGUCAUCGAGUUA [Fam2.1 aminoacylation ribozyme variant] | 0.691 | 1.09 | 0.946 | 0.897 | 0.524 | 1.02 |
| AUUACCGUGGUCAUCGGGUGA [Fam2.1 aminoacylation ribozyme variant] | 17.3 | 7.08 | 11.7 | 11.9 | 105 | 8.1 |
| AUUACCGUGGUCUUCGAGUGA [Fam2.1 aminoacylation ribozyme variant] | 6.36 | 2.96 | 5.14 | 5.05 | 27 | 3.21 |
| AUUACCGUUGUCAUCGAGUGA [Fam2.1 aminoacylation ribozyme variant] | 9.94 | 4.49 | 7.75 | 8.01 | 40.2 | 4.16 |
| AUUACCUUGAUCAUCGAGUGA [Fam2.1 aminoacylation ribozyme variant] | 10.7 | 3.94 | 8.63 | 8.21 | 37.6 | 4.44 |
